Drawing on patent US20250136674A1 (KYOTO UNIVERSITY, published 2025), this text covers Kd for 1 molecule.

In this assay the target is T1, purified full-length recombinant mouse USAG-1 (mouse, UniProt Q9CQN4 24-206).
T1 construct: also called purified recombinant mouse USAG-1 protein
T1 sequence (looked up): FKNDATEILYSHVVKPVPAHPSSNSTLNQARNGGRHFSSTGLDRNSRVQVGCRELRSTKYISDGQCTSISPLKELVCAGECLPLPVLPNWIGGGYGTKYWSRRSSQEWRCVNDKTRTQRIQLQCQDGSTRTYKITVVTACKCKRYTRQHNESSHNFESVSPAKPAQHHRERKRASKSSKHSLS
As to the kind of experiment: BLI (Octet Red), antibody immobilised, mouse USAG-1 at 10, 30 and 100 nM, global fitting. How it is done: For the antibody obtained in Example 1, affinity (KD values) was determined by using a BLI method based on Octet (registered trademark) Red (manufactured by Pall ForteBio). Specifically, each antibody was immobilized on the biosensor, the purified recombinant mouse USAG-1 protein was added at three different concentrations (10 nM, 30 nM, 100 nM), and binding and dissociation curves were obtained. The affinities were calculated by subjecting the obtained curves to global fitting with an analysis program attached to the Octet device.
(In BLI a coated tip is dipped into the sample, and binding shifts an interference pattern.)

B1: mouse anti-USAG-1 neutralizing antibody B48C (antibody, V domains shown)
VH: EVQLQQSGAELVRPGASVKLSCTASGFNIKDDYMHWVKQRPEQGLEWIGWIDPENGDTEYASKFQGKATITADTSSNTAYLQLSSLTSEDTAVYYCITPYYYGSSFSYWYFDVWGTGTTVTVSS
VL: DVLMTQTPLSLPVSLGDQASISCRSSQSIVHSNGNTYLEWYLQKPGQSPKLLIYKVSNRFSGVPDRFSGSGSGTDFTLKISRVEAEDLGVYYCFQGSHVPWTFGGGTKLEIKR
notes: Mouse monoclonal from a hybridoma (USAG-1 KO mouse immunised with rat USAG-1)
As usually defined, the Kd is a measure of binding affinity in units of concentration. Turning to B1, the dissociation constant (Kd) was determined as 3.26 nM.
